Measured values taken from PMC9352680, “A comprehensive thermodynamic model for RNA binding by the Saccharomyces cerevisiae Pumilio protein PUF4”.

T1: PUF4 RNA-binding domain (Saccharomyces cerevisiae, UniProt P25339 537-888)
T1 sequence: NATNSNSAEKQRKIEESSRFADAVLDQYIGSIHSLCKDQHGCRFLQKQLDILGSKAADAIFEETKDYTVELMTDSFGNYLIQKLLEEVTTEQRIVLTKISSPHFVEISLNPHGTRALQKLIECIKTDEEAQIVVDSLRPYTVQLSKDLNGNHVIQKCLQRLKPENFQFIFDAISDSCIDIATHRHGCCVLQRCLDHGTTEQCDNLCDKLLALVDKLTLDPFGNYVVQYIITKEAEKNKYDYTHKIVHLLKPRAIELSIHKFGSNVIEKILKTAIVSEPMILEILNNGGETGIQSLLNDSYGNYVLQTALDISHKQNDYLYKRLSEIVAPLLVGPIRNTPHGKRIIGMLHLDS

B1: Ic_S1_P4E.1_K4.1_C4.1_H4.1_A4.1_[T5A]_[A6C]_[T7C]_F4.1_[T8C]_[A9T]_T4.1 (ssRNA)
RNA: UCUCUUUGUAACCCUUCUCUU
B2: Ic_S1_P4E.1_K4.1_C4.1_H4.1_A4.1_[T5A]_[A6C]_[T7A]_F4.1_[T8C]_T4.1 (ssRNA)
RNA: UCUCUUUGUAACACAUCUCUU
B3: Ic_S1_P4E.1_K4.1_C4.1_H4.1_A4.1_[T5A]_[A6C]_F4.1_[T8C]_[A9G]_T4.1 (ssRNA)
RNA: UCUCUUUGUAACUCGUCUCUU
B4: Ic_S1_P4E.1_K4.1_C4.1_H4.1_A4.1_[T5A]_[A6C]_[T7C]_F4.1_[T8A]_T4.1 (ssRNA)
RNA: UCUCUUUGUAACCAAUCUCUU
B5: Ic_S1_P4E.1_K4.1_C4.1_H4.1_A4.1_[T5A]_[A6C]_[T7A]_F4.1_[A9T]_T4.1 (ssRNA)
RNA: UCUCUUUGUAACAUUUCUCUU
B6: Ic_S1_P4E.1_K4.1_C4.1_H4.1_A4.1_[T5A]_[A6C]_[T7A]_F4.1_[T8G]_[A9T]_T4.1 (ssRNA)
RNA: UCUCUUUGUAACAGUUCUCUU
B7: Ic_S1_P4E.1_K4.1_C4.1_H4.1_A4.1_[T5C]_[T7A]_F4.1_[A9G]_T4.1 (ssRNA)
RNA: UCUCUUUGUACAAUGUCUCUU
B8: Ic_S1_P4E.1_K4.1_C4.1_H4.1_A4.1_[T5A]_[A6C]_[T7C]_F4.1_[A9C]_T4.1 (ssRNA)
RNA: UCUCUUUGUAACCUCUCUCUU
B9: Ic_S1_P4E.1_K4.1_C4.1_H4.1_A4.1_[T5A]_[A6C]_[T7C]_F4.1_[T8A]_[A9G]_T4.1 (ssRNA)
RNA: UCUCUUUGUAACCAGUCUCUU
B10: Ic_S1_P4E.1_K4.1_C4.1_H4.1_A4.1_[T5C]_[T7A]_F4.1_[T8C]_T4.1 (ssRNA)
RNA: UCUCUUUGUACAACAUCUCUU
B11: Ic_S1_P4E.1_K4.1_C4.1_H4.1_A4.1_[T5A]_[A6C]_[T7A]_F4.1_T4.1 (ssRNA)
RNA: UCUCUUUGUAACAUAUCUCUU
B12: Ic_S1_P4E.1_K4.1_C4.1_H4.1_A4.1_[T5A]_[A6C]_[T7G]_F4.1_[T8C]_[A9G]_T4.1 (ssRNA)
RNA: UCUCUUUGUAACGCGUCUCUU
B13: Ic_S1_P4E.1_K4.1_C4.1_H4.1_A4.1_[T5C]_F4.1_[T8G]_[A9C]_T4.1 (ssRNA)
RNA: UCUCUUUGUACAUGCUCUCUU
B14: Ic_S1_P4E.1_K4.1_C4.1_H4.1_A4.1_[T5A]_[A6G]_[T7C]_F4.1_[A9C]_T4.1 (ssRNA)
RNA: UCUCUUUGUAAGCUCUCUCUU
B15: Ic_S1_P4E.1_K4.1_C4.1_H4.1_A4.1_[T5C]_[T7A]_F4.1_[T8G]_[A9C]_T4.1 (ssRNA)
RNA: UCUCUUUGUACAAGCUCUCUU
B16: Ic_S1_P4E.1_K4.1_C4.1_H4.1_A4.1_[T5A]_[A6C]_[T7A]_F4.1_[A9C]_T4.1 (ssRNA)
RNA: UCUCUUUGUAACAUCUCUCUU
B17: Ic_S1_P4E.1_K4.1_C4.1_H4.1_A4.1_[T5A]_[A6C]_[T7A]_F4.1_[T8A]_[A9G]_T4.1 (ssRNA)
RNA: UCUCUUUGUAACAAGUCUCUU
B18: Ic_S1_P4E.1_K4.1_C4.1_H4.1_A4.1_[T5A]_[A6C]_[T7G]_F4.1_[A9T]_T4.1 (ssRNA)
RNA: UCUCUUUGUAACGUUUCUCUU
B19: Ic_S1_P4E.1_K4.1_C4.1_H4.1_A4.1_[T5C]_F4.1_[T8A]_[A9G]_T4.1 (ssRNA)
RNA: UCUCUUUGUACAUAGUCUCUU
B20: Ic_S1_P4E.1_K4.1_C4.1_H4.1_A4.1_[T5C]_[T7A]_F4.1_[A9T]_T4.1 (ssRNA)
RNA: UCUCUUUGUACAAUUUCUCUU
B21: Ic_S1_P4E.1_K4.1_C4.1_H4.1_A4.1_[T5C]_F4.1_[T8C]_[A9C]_T4.1 (ssRNA)
RNA: UCUCUUUGUACAUCCUCUCUU
B22: Ib_S1_P3E.1_K3.1_C3.1_H3.1_[A4G]_A3.1_F3.1_[A8G]_T3.1 (ssRNA)
RNA: UCUCUUUGUGUAUGUCUCUU
B23: Ic_S1_P4E.1_K4.1_C4.1_H4.1_A4.1_[T5A]_[A6G]_[T7C]_F4.1_[A9G]_T4.1 (ssRNA)
RNA: UCUCUUUGUAAGCUGUCUCUU
B24: Ic_S1_P4E.1_K4.1_C4.1_H4.1_A4.1_[T5A]_[A6C]_[T7A]_F4.1_[T8A]_T4.1 (ssRNA)
RNA: UCUCUUUGUAACAAAUCUCUU
B25: Ic_S1_P4E.1_K4.1_C4.1_H4.1_A4.1_[T5A]_[A6C]_F4.1_[T8A]_[A9G]_T4.1 (ssRNA)
RNA: UCUCUUUGUAACUAGUCUCUU
B26: Ic_S1_P4E.1_K4.1_C4.1_H4.1_A4.1_[T5A]_[A6C]_F4.1_[T8G]_[A9C]_T4.1 (ssRNA)
RNA: UCUCUUUGUAACUGCUCUCUU
B27: Ic_S1_P4E.1_K4.1_C4.1_H4.1_A4.1_[T5A]_[A6C]_F4.1_[T8G]_T4.1 (ssRNA)
RNA: UCUCUUUGUAACUGAUCUCUU
B28: Ic_S1_P4E.1_K4.1_C4.1_H4.1_A4.1_[T5A]_[A6C]_F4.1_[T8G]_[A9G]_T4.1 (ssRNA)
RNA: UCUCUUUGUAACUGGUCUCUU
B29: Ic_S1_P4E.1_K4.1_C4.1_H4.1_A4.1_[T5A]_[A6C]_F4.1_[T8G]_[A9T]_T4.1 (ssRNA)
RNA: UCUCUUUGUAACUGUUCUCUU
B30: Ic_S1_P4E.1_K4.1_C4.1_H4.1_A4.1_[T5A]_[A6C]_[T7A]_F4.1_[T8G]_[A9C]_T4.1 (ssRNA)
RNA: UCUCUUUGUAACAGCUCUCUU
B31: Ib_S1_P3E.1_K3.1_C3.1_H3.1_[T3C]_A3.1_F3.1_[A8G]_T3.1 (ssRNA)
RNA: UCUCUUUGCAUAUGUCUCUU
B32: Ic_S1_P4E.1_K4.1_C4.1_H4.1_A4.1_[T5A]_[A6C]_[T7G]_F4.1_[T8C]_[A9C]_T4.1 (ssRNA)
RNA: UCUCUUUGUAACGCCUCUCUU

Biological target: T1, PUF4 RNA-binding domain
Test: Mg; RNA-MaP; 20 mM Na-HEPES pH 7.4, 30 mM KOAc, 0.75 mM MgCl2, 0.1% Tween-20, 5% glycerol, 0.1 mg/mL BSA, 2 mM DTT; 25 C; 0.0125-409.6 nM protein
Conditions: tags: N-His6-TEV cleaved; C-SNAP kept, Cy3B-labelled; label: tethered on chip by stalled RNA polymerase

| Binder | Kd |
| --- | --- |
| B1 | 727 nM |
| B2 | 209 nM |
| B3 | 726 nM |
| B4 | 863 nM |
| B5 | 13.9 nM |
| B6 | 362 nM |
| B7 | 7.97 nM |
| B8 | 90 nM |
| B9 | > 2300 nM |
| B10 | 14.4 nM |
| B11 | 1.55 nM |
| B12 | > 2300 nM |
| B13 | 28.6 nM |
| B14 | 1840 nM |
| B15 | 692 nM |
| B16 | 24.5 nM |

| Binder | Kd |
| --- | --- |
| B17 | 1670 nM |
| B18 | 314 nM |
| B19 | 5.5 nM |
| B20 | 11.2 nM |
| B21 | 29.5 nM |
| B22 | 494 nM |
| B23 | 544 nM |
| B24 | 111 nM |
| B25 | 104 nM |
| B26 | 704 nM |
| B27 | 674 nM |
| B28 | 937 nM |
| B29 | 360 nM |
| B30 | 1150 nM |
| B31 | > 2300 nM |
| B32 | 2000 nM |
